# Assay results published in the nanobody polyreactivity screen of Harvey et al. (2022).
# Experiment: yeast display, Sf9 membrane polyspecificity reagent, FACS + sequencing; frameworks hold sequencing errors
# Method in brief: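 After 36–48 hours of galactose induction, yeast (Saccharomyces cerevisiae BJ5465) displaying a synthetic nanobody library were stained at 4 °C for 1 hour with 10% biotinylated, detergent-solubilized Sf9 membrane reagent. Streptavidin microbeads enriched the stained cells before FACS sorting into low and high (top ~1%) gates on anti-HA and streptavidin fluorescence. Each clone's polyreactivity label reflects its gate of origin.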
row,Sequence,polyreactivity (PSR sort gate)
1,QLQLVESGGGLVQAGGSLRLSCAPSGRIFPSYAMGWYRQAPGKERELVAPISWSGVSTYADSVKGRFTISRDNAKNTVYLQMNSVKPEDTAVYFCAAQYTLVIFPYGGYVIEYEYWGQGTQVTVSS,low polyreactivity
2,QVQLVESGGGLVQAGGSLRLSCAASGRTFRNAMGWYRQAPGKEREFVATITWSGGSTYYADSVKGRFTISRDNAKNTVYLQMNSLKPEDTAVYYCAAEGRLWDWQRYDYWGQGTQVTVSS,low polyreactivity
3,QVQLVESGGGLVQAGGSLRLSCAASGLTIDRNAMGWYRQAPGKERELVAAINWRGSRTYYADSVKGRFTISRDNAKNTVYLQMNSLKPEDTAVYYCAADWHTTYDYWGQVTQVTVSS,high polyreactivity
4,QVQLVESGGGLVQAGGSLRLSCAASGRIFPYYAMGWYRPAPGKERELVATISTAGSTNYADSVKGRFTISRDNAKNTVYLQMKSLKPEDTAVYYCATRNTWYHRGYDYWGQGTQVTVSS,low polyreactivity
5,QVQLVESGGGLVQAGGSLRLSCAASGRTFRAYAMGWYRQAPGKERELVAAISGTGDRTYYADSVKGRFTISRDYAKNTVYLQMNSLKPEDTAVYYCAVSYSYRYYYWGQGTQVTVSS,high polyreactivity
6,QVQLVESGGGLVQAGGSLRLSCADSGFTFTYYTMGWYRQAPGKERELVAAISGSGGSTYYADSVKGRFTISRDNAKYTVYLQMNSQKPEDSAVYYCAARSRWQSYRLKNHGTYKHDYWGQGTQVTVSS,high polyreactivity
7,QVQLVESGGGLVQAGGSLRLSCAASGRIFHFNTMGWYRQAPGKERELVAAITSSGGSTNYADSVKGRFTISRDNAKNTVYLQMNSLKPEDTAVYYCNADTGAADYFDFDYWGQGTQVTVSS,low polyreactivity
8,QVQLEDSGGGLVQAGGSLPLSCAASGSIFVQYDMGWYIQAPGKERELVAAINDSGDITYYADSVKARFTISRDNAKNTIYLQMNSLKPEDTAVYYCAASAAYYGFYKSVTYDYWGQGTQVTVSS,low polyreactivity
9,QVQLVESGGGLVQAGGSLRLSCAASGSIFKYYAMGWYRQAPGKERELVAAISSGGITNYADSVKGRFTISRDNAKNTVYLQMNSLKPEDTAVYYCAARDYVRLGLYDYDYWGQGTQVTVSS,low polyreactivity
10,QVQRVESGGGLVQAGGSLRLSCAASGRIFPTNAMGWYRQAPGKERELVAAIPVSGGSTYYADSVKGRFTISRDNAKNTVYLQMNSLKPEDTAVYYCAADSSTYRFDYWGQGTQVTVSS,low polyreactivity
11,QVQLVESGGRLVQAGGTLRLSCAASGFIFTPYAMGWYRQAPGKERELVAAITWRGARTYYADSVKGRFTISRDNANNTVYLQMNSLKPEDTAVYYCATTFTGYNKEFGYWGQGTQVTVSS,high polyreactivity
12,QVQLVESGGGLVQAGGSLRLSCAASGSPFRPYVMGWSRQAPGKERELVAAISWRGGTTYYADSVKGRFTISRDNAKNTDYLQIHSLKPEDTAVYYCAARGDQGVPVARRYDYWGQGTQVTVSS,high polyreactivity
13,QVQLVESGGGLVQAGGSLRLSCAASGRTFYRNAMGWYRQAPGKERELVAAISQRGGRTYYADSVKGRFTISRDNAKNSVYLQMNSLKPEDTAVYYCAASPIYPVYRRHGYWGQGTQVTVSS,high polyreactivity
14,QVQLVESGGGLVQAGGSLRLSCAASGRIFVPYVMGWYRQAPGKERELVASISDSDTSTYYADSVKGRFTISRDNAKNTVYLQMNCLKPEDTAVYYCNVDYWGQGTQVTVSS,low polyreactivity
15,QVQLVDSGGGLVQAGGSLRFSCAASGSIFPVNVMGWYRQAPGKERELVADITSTGTYYADSVKGRFTISRDNAKNTDYLQMNSLKPEDTAVYYCAKAGGSWYRRYYYWGQGTQVTVSS,high polyreactivity
16,QVQLVESGGGLVQAGGSLRLSCAASGSTFILNAMGWYRQAPGKERELVATISSSDTSTYYADSVKGRFTISRDNANNTVYLQMNSLKPEDTAVYYCNADYYTTSYLQRVYHYGVEYDYWGQGTQVTVSS,low polyreactivity
17,QVQLVESGRGLLQAGGSLRLSCASSGGIFPKYAMGWYRQAPGKEREFVASISYRGGSTYYADSVKGRFTISRDNAKNTVYFQMNSLKPDDTAVFYCAKPTYRFYWGDFDYWGQGSQVTVSS,low polyreactivity
18,QVQLVESGGGLVQAGGSLRLSCAASGFTFGYYALGWYRQAPGKERELVAAINYSGGSTYYADSVKGRFTISRDNAKNTVYLQMNSLKPEDTAVYYCAAQSYYGRGYWGQGTQVTVSS,high polyreactivity
19,QVQLVESGGGLLQAGGSLRLSCAASGRNFRLYPMGWYRQAPGTERDFLAAITFSGGRTYYADSVKGRFTISRDNAKNTVYLQMKSLKPEDTAVYYCAARGQTGYYSGVGYWGLGTQVTVSS,high polyreactivity
20,QVQLVESGGGLVQAGGSLRLSCEASGFTFGPYAMGWYRQAPGKEREWVAAIDDSGGNTYYADSVKGRFTISRDNAKNTVYLQRNSLKPEDTAVSYGNAFGPDYYHVYPAEDYWGQGTQVTVSS,low polyreactivity
21,QVQLVESGGGLVQAGGSLRLSCAAYGRISYYYAMGWYRQAPGKERELVAAITYSTGSTYYADSVKGRFTISRDNAKNTVYLQMNSLKPEDSAVYYCAARYWRWLFPFDYWGQGTKVTVSS,high polyreactivity
22,QVQLVESGGGLVQAGGSLRLSCAASGSTFRTYAMGWYRQAPGKVRELVAAITNGGSTYADSVKGRFTISRDNAKNTVYLQMNSLKPEDTAVYYCNADFGFGYVSLLYEYWGQGTQVTVSS,low polyreactivity

row,Sequence,polyreactivity (PSR sort gate)
1,QVQLVESGGGLVQAGGSLRLSCAASGSIFVINAMGWYRQAPGKERELVAAIDWSGDSTYYADSVKGRFTISRDNAKNTVYLQMNSLKPEDTAVYYCAADLDSRGTYGRYEYWGQGTQVTVSS,low polyreactivity
2,QVQLVESGGGLFQAGGSLRLSCAASGFIFRDNAMGWYRQAPGKERELVAAISWSSDSTYYADSVKGRFTISRDNEKNTVYLQMNSLNPEDSAVYYCAGKGQRGYWWGFDYWGQGTQVTVSS,low polyreactivity
3,QVQLVESGGGLVQAGGILRLSCSASGRIFQFYAMGWYRQAPGKERELVAGISWSGGSTNYADSVKGRFTISRDNAKNTVYLQMNSLKPEDSAVYYCNVDLYNWRGDSTGYDYWGQGTQVTVSS,low polyreactivity
4,QVQLVESGGGLVQAGGSLRLSCAASGSNFDYNTMGWYRQAPGKEREFVAAISSSGGGTSYADSVKGRFTISRDNAKNTVYLQMNSLKPEDTAVYYCAALIKLTPYQRQYWKYRAYYYGGQGTQVTVSS,high polyreactivity
5,QVQLVESGGGLVQAGGSLRLSCAASGFIFSNNAMGWYRQAPGKERELVAAISGRGGSTYYADSVKGRFTISRDNAKNTVYLQMNSLKPEDTAVYYCNALYTYSYSRFDYWGQGTQVTVSS,low polyreactivity
6,QVQLVESAGGLVQAGVSLRLSCAASGLTFVQYAMGWYIQAPGKERELVAAISRSGGSTYYADSVKGRFTISRDNAKNTVYLQMNSMKPEDTAVYYCNAVIWLTSSEYWGQGTQVTVSS,high polyreactivity
7,QVQLVESGGGLVQAGGSLRLSCAASGFIFSCYAMGWYRQAPGKERELFAAISSSGVSTYYADSVKGRFTISRDNAKNTVYLHMNSLKPEDTAVNYCNAYGSVWDRGEYDYEYWGQGTQVTVSS,low polyreactivity
8,QVQLVESGGGLFQAGGSLRLSCAASGFIFYPNAMGWYRQAPGKEREWVAAITDSGGSTYYADSVKGRFTISRDNAKNTVYLQMNSLKPEDTAVYYCNADYGGYYWTWGYDYWGQGTQVTVSS,low polyreactivity
9,QVQLLESGGGLVQAGGSLRLSCAASGRIFRRYAMGWYRQAPGKEREFVAAITKSGGSTYYADSVKGRFTISRDNAKNTVYLQMNSLKPEDTAVYYCATYPQYYFRYDYWGQGTQVTVSS,high polyreactivity
10,QDQLVESVGGLVQAGGSLRLSCAPTGSTFYGYGLAWSRQSPGKARELVAAITGSGDTTYYADSVKGRFTISRDYANNTVYLQMNSLKPEDTAVYYCNARWHAEYDYWGQGTQVTVSS,low polyreactivity
11,QVQLVESVGGLVQAGGSLRLSCAASGRTFQYNAMGWYRPAPGKERELVAAISSSGGSTYYADSVKGRFTISRDNAKNTVYLQMNSLKPEDTAVYYCNAYSQSWNFYGDGDYWGQGTQVTVSS,low polyreactivity
12,QVQLVESGGGLVQAGGSLRLSCASSGSIFEANAMGWYRQAPGIESELVAAISTTGGNTYYADSVKGRFTISRDNAKNTVYLQMNSLKPEDTAVYYCAADPSQPRIDSSNYDYWGQGTQVTVSS,low polyreactivity
13,QVQLVESGGVLVQAGGSLRLSCAASGSTFGRYTMGWYRQAPGKERELVAVITKSGGSTYYADSVKGRFTISRDNAKNTVYLQMNSLKPEDTAVYYCAAGVAWRFYSWGQGTQVTVSS,high polyreactivity
14,QVQLVESGGGLVQAGGSLRLSCAASGRIFGGNAMGWYRQAPGKERELVAAISKRGGSTYYADSVKWRFTISRDNAKNTVYLQMNILKPEDTAVYYCAATAYADQGLDYGYWGQGTQVTVSS,high polyreactivity
15,QVHLVESGGGLVQAGGSLRLSCAASGSIFVHYAMGWYRQAPGKERELVATISSSGGSTYYADSVKGRFTISRDNAKNTVYLQMKSLKPEDTAVYYCAADWTLDPSYGYYADDYWGQGTQVTVSS,low polyreactivity
16,QVQLVESGGGLVQAGGSLRLSCAASGSIFVYNAMGWYRQAPGKEREFVAAISWSVGRTYYADSVKGRFTFSRDNEKNTVYLQMNSLKPEDNAVYYCNAEFVAWYYYEEHDGDYWGQGTQVTVSS,high polyreactivity
17,QVQLVESGGGLVQAGGSLRLSCAASGFISPSYAMGWYRPAPGKERELVAAIRSSDGSTYYADSVKGRFTISRDNAKNTVYLQMNSLKPEDTAVYYCAAGGSYYRDDYWGQGTQVTVSS,low polyreactivity
18,QVQLVESGGGLVQAGGSLRLSCAASGRIFYYYAMGWYRQAPGKEREFVAAITGRGGSTYYADSVKGRFTISRDNEKNTVYLQMYSLKPEDTAVYYCNAGQYFEYYGWYSRYGYWGQGTQVTVSS,low polyreactivity
19,QVQLVESGGGLVQAGGSLRLSCAASGSTFYGYGMGWYRQAPGKEWELVAAITGSGDTTYYADSVKGRFTISRDNAKNTVYLQMNSLKPEDTAVYYCNARWHAEYDYWGQGTQVTVSS,low polyreactivity
20,QVQLVESGGGLVQAGGSLRLSCAASGLFFFYYAMGWYRQAPGKERELDAAIRTNYADSVKGRFTISRDNAKNTVYLQMNSLKPEDTAVYYCAAESSQTPTSAFDYWGQGTQVTVSS,low polyreactivity
21,QVQLVESGGGLVQAGGSLRLSCAASGSIFRSNAMGWYRQAPGQERELVAAISRSGGRTYYADSVKGRFTISRDNAKNTVYLQMNSLKPEDTAVYYCAAQVVRSLKYEYWGQGTQVTVSS,high polyreactivity
